Experimental data published in paper doi:10.1101/2021.12.11.472236 (bioRxiv, 2021).

B1: 10-40 (antibody, V domains shown)
VH: QLQLQESGPGLVKPSETLSLTCTVSGGSISSSNFYWGWIRQPPGKGLEWIASITYSGRTFYNPSLKSRVAISVDTSKNQFSLKLSSVTAADTAVYYCARTFPSYYDRSGYHYLNYGMDVWGQGTTVTVSS
VL: NFMLTQPHSMSESPGKTVTISCTRSSGSIASNYVQWYQQRPGSSPTTVIYEDNQRPSGVPDRFSGSIDSSSNSASLTISGLKTEDEADYYCQSYDSSSWVFGGGTKLTVL
B2: 10-28 (antibody, V domains shown)
VH: QVQLVESGGGVVQPGRSLRLSCAASGFTFSSYDMHWVRQAPGKGLEWVAVISYDGSSKFYAESVKGRFTISRDNSKNTLYLQMNSLRAEETAVYYCVKDGEQLVPLFDYWGQGTLVTVSS
VL: not shown
B3: 10-40 Fab (Fab, V domains shown)
VH: B1 VH
VL: B1 VL
B4: 10-28 Fab (Fab, V domains shown)
VH: B2 VH
VL: not shown

Experiments:
RBD of Rf1 = RBD of Rf1 (Bat SARS CoV Rf1/2004, UniProt Q0QDZ0); assay: ELISA
SARS-CoV-2 WA1 RBD = SARS-CoV-2 WA1 RBD (SARS-CoV-2, UniProt P0DTC2); assay: crystal structure

Binder	binding result (RBD of Rf1)	binding result (SARS-CoV-2 WA1 RBD)
B1	binds	
B2	binds	
B3		binds
B4		binds
